B1: murine PER2 (amino acids 1095–1215) (domain or fragment, mouse, UniProt O54943 1095-1215, looked up)
chain: SSDTSHTSKYFGSIDSSENNHKAKMIPDTEESEQFIKYVLQDPIWLLMANTDDSIMMTYQLPSRDLQAVLKEDQEKLKLLQRSQPRFTEGQRRELREVHPWVHTGGLPTAIDVTGCVYCES
notes: also called PER2-CBD
B2: GST-tagged mPER2 WT (amino acids 1095–1215) (domain or fragment, mouse, UniProt O54943 1095-1215, looked up)
chain: B1 chain
notes: also called WT PER2-CBD; GST-PER2; source: E. coli, purified

What was measured:
[1] = target: T1, mouse CRY2 (amino acids 1–512) (mouse, UniProt Q9R194 1-512); assay: crystal structure; complex of purified CRY2 (1–512) and PER2 (1095–1215); crystals grown at 4°C, hanging drop, 100 mM HEPES pH 7.5, 200 mM NaCl, 15% PEG 3350; 2.8 Å; details: both partners purified
T1 construct: Cryptochrome 2 (CRY2), mouse, residues 1-512, photolyase-homology region (PHR); also called CRY2-PHR; mCRY2
T1 sequence (looked up): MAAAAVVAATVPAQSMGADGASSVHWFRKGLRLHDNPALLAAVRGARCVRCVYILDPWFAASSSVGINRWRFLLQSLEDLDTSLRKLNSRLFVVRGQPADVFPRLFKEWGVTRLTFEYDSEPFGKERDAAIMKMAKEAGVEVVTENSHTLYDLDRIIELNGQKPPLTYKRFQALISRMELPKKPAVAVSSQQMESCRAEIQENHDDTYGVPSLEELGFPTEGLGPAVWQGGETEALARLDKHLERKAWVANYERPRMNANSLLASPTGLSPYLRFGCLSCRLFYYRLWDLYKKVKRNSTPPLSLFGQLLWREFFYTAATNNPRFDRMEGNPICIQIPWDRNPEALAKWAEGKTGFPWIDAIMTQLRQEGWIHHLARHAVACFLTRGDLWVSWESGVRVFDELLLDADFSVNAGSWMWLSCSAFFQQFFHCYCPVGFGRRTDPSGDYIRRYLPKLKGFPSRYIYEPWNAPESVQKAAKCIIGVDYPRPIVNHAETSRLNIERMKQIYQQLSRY

[2] = target: T1, mouse CRY2 (amino acids 1–512); assay: pull-down; GST-PER2 immobilised on glutathione beads, CRY2-PHR incubated at 4°C for 1 hr; SDS-PAGE, Coomassie stain; details: both partners purified

Binder	binding result [1]	binding result [2]
B1	binds	–
B2	–	binds

Reference: paper PMC4157330, “Molecular assembly of the period-cryptochrome circadian transcriptional repressor complex” (eLife, 2014)
